This note sets out measurements from patent US20250257130A1 (NONA BIOSCIENCES SUZHOU, published 2025).

The target of assay [1] is T1, human ROR1 on cells (HEK293T-hROR1, PANC-1, A549) (human, UniProt Q01973 30-937).
T1 construct: whole, on cells; one molecule for the three cell lines; also called huROR1; cell surface ROR1
In words: flow cytometry, A549 cells. As for the experimental part: (§1) In brief, anti-ROR1 antibodies were serially diluted in staining buffer (PBS containing 2% FBS). Antibody solution was incubated with 1×10⁵ cells at 4° C. for 1 hour. […] After 1-hour incubation at 4° C., cells were washed twice with staining buffer and subjected to flow cytometry. PR000374 (Bench marker 1) and non-relevant IgG isotype control (Crownbio) were used as positive and negative controls, respectively.

Assay [2] has as its target T1, human ROR1 on cells (HEK293T-hROR1, …). The experiment in a line: flow cytometry, PANC-1 cells. As to the method: as §1
(In flow cytometry, cells or beads pass a laser one at a time.)

The target of assay [3] is T2, Human ROR1-ECD-his (Acro Biosystems RO1-H522y) (human, UniProt Q01973 30-406).
T2 construct: extracellular domain; bought protein; also called hROR1-ECD-his; hu-ROR1-ECD-his
T2 sequence (Q01973 30-406): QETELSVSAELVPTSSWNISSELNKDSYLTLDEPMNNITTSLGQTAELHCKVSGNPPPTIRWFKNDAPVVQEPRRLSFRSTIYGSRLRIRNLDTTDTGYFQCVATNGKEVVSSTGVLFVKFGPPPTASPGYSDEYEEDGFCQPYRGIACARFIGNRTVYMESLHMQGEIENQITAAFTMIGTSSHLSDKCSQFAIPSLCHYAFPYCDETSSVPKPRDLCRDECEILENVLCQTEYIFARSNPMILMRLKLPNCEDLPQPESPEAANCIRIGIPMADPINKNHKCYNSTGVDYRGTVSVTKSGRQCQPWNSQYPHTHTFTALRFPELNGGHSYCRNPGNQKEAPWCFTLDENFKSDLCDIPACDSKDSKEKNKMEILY
In words: ELISA, coated hu-ROR1-ECD-his.

Assay [4] deals with T2, Human ROR1-ECD-his (Acro Biosystems …). The experiment in a line: BLI, ROR1-His on HIS1K sensor, antibody in solution. The gist of the method: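 His-tagged ROR1 (20 nM) captured on HIS1K biosensors; serially diluted antibodies in kinetics buffer as analyte. Association and dissociation rate constants measured by Octet biolayer interferometry, sensors regenerated with 10 mM glycine-HCl pH 1.5 between cycles.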
Background: BLI is a label-free optical method that tracks binding on a fibre tip over time.

For assay [5], the target named is T3, hu-ROR2-ECD-his (Acrobiosystems RO2-H52E5) (human, UniProt Q01974 34-403).
T3 construct: extracellular domain; bought protein; also called Human ROR2 his-tagged protein; Human ROR2, His Tag
T3 sequence (Q01974 34-403): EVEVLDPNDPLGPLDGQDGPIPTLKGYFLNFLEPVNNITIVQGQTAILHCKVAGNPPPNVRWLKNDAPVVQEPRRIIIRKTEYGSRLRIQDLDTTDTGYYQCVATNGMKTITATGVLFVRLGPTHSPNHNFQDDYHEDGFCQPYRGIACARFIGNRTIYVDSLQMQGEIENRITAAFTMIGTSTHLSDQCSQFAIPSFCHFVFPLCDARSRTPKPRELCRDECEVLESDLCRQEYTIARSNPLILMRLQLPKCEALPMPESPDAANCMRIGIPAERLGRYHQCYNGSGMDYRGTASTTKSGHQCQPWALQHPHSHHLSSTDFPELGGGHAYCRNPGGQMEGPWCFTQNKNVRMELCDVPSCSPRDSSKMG
The experiment in a line: ELISA, plate coated with hu-ROR2-his at 1 µg/mL. Summed up: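 Plates were coated overnight at 4 °C with 1 μg/mL human ROR2-ECD-his and blocked with 2% BSA. Serially diluted anti-ROR1 antibodies were bound for 1 h at 37 °C, then secondary antibody for 1 h at 37 °C. Detection was by TMB (~5 min), stopped with H2SO4, and read at 450/570 nm.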
A general note: In an ELISA, binding on a coated surface is turned into a signal by an enzyme label.

The target in assay [6] is T2, Human ROR1-ECD-his (Acro Biosystems …). The experiment in a line: BLI in-tandem competition; competitor: PR303145. An excerpt:
(§2) To determine if anti-ROR1 antibodies bind to human ROR1 on different or approximate binding epitopes, the ForteBio Octet® RED96e platform was used to perform epitope competition experiments on the anti-ROR1 antibodies. Human ROR1 protein (Acrobiosystems, #RO1-H522y) was biotinylated and then captured onto SA biosensors (ForteBio, #18-5020) to reach loading level of 0.3-0.4 nm. The in-tandem competition assay format was applied and it contains two association steps. Firstly, the antigen-loaded biosensors bind to each antibody (a.k.a, First antibody, 1st Ab) with a saturating concentration of 200 nM for 180 seconds to reach equilibrium and then secondly bind to the competing antibodies (a.k.a, Second antibody, 2nd Ab) of 200 nM for 180 seconds. The second binding signals were recorded as the 100% signal of each antibody when the first antibodies were replaced by kinetics buffer. All the binding data were analyzed using ForteBio Data Analysis 11.0 software. The inhibition rate is calculated by the following formula: […]

For assay [7] the target is unchanged. In words: BLI in-tandem competition; competitor: PR303155.
Description: as §2

Assay [8] has the same target. The experiment in a line: BLI in-tandem competition; competitor: PR303201.
Description: as §2

Assay [9] concerns the target T1, human ROR1 on cells (HEK293T-hROR1, …). In words: flow cytometry on A549 cells, MFI (Mean). As to the method:
Binding of recombinant anti-ROR1 antibodies to human or cynomolgus ROR1-overexpressing cells was tested by flow cytometry. In this example, ROR1-expressing cell lines are HEK293T cell lines that had been transfected to express human ROR1 on the surface (HEK293T-hu ROR1, KYINNO BIOTECHNOLOGY CO., LTD, Catalog #KC-1018), CHO-K1 cell lines that had been transfected to express cynomolgus ROR1 (CHOK1-cyno ROR1), PANC-1 (ATCC, catalog: CRL-1469) or A549 cell lines (Shanghai Institute of Biochemistry and Cell Biology, Chinese Academy of Sciences).
as §1

In general, EC50 refers to the midpoint of the concentration-response curve. Lower therefore signals an effect from little substance. For orientation: Kd means the concentration at which binding is half-saturated. A lower Kd goes with tighter binding. By koff is commonly meant the first-order rate constant of dissociation. A high value points to a short-lived complex. The term kon denotes the rate constant with which the complex forms. Lower therefore signals slower complex formation. A word on the EC50 (read off the curve): it is the concentration giving half of the maximal effect. High values mean a less potent agent, low ones a more potent agent.

T1 sequence (Q01973 30-937): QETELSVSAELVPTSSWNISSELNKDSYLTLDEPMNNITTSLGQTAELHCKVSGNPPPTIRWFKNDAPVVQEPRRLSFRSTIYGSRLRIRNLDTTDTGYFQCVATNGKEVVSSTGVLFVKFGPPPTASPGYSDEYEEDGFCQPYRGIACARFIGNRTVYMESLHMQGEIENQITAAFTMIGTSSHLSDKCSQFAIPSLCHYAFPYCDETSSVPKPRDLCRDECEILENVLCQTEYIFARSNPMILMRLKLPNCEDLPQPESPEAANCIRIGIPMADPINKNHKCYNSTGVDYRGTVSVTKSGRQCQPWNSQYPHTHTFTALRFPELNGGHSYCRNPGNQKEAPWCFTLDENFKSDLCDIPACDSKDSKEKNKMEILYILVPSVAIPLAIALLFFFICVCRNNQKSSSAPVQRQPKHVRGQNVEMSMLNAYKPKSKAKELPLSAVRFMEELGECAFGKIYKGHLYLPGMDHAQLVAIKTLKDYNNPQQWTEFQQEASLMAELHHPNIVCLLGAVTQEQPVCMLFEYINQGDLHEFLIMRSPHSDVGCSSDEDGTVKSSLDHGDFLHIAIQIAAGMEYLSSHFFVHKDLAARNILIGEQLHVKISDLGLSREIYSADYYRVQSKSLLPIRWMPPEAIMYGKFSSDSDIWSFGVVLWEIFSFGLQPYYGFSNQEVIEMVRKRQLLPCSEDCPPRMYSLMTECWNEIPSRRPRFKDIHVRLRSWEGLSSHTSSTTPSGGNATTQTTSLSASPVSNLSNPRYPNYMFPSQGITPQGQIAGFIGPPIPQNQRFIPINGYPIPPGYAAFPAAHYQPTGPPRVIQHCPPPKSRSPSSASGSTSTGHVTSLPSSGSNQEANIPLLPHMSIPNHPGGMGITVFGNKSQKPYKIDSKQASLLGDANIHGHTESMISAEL

B1: PR303191 (antibody, human IgG1, V domains shown)
VH: EVQLLESGGGLVQPGGSLRLSCAASGFIFGSYAMSWVRQAPGKGLEWVSGISGTGGNTYYADSVKGRFTISRDNSKNTLYLQMNSLRAEDTAVYFCERGITIHGVVIIPPDYRGQGTLVTVSS
notes: HCAb (heavy chain-only, human IgG1 Fc), no light chain
As for B1, the 50% effective concentration (EC50) in assay [1] amounted to 0.01 µg/mL; in assay [3] it was 0.001 µg/mL. The figures for the “MAX(MFI)” value in assay [1] and in assay [2] were 650000 MFI and 364000 MFI, respectively. Besides, the equilibrium dissociation constant (Kd) in assay [4] was found to be 0.0395 nM. In assay [4], this molecule gave a koff of 0.000115 s⁻¹. The molecule further had a kon in [4] of 2.9e+06 M⁻¹ s⁻¹. Besides, the binding result in assay [5] is “no binding (tested: about 15 µg/ml)”. For the same molecule, the figures for the “Inhibition (%)” value in assay [6], in [7] and in assay [8] were -70%, -62% and 57%, respectively.

B2: PR303125 (antibody, human IgG1, V domains shown)
VH: EVQLLESGGGLVQPGGSLRLSCAASGFTFSSHAMSWVRQAPGKGLEWVSAISGSGDSTHYAASVKGRFTISRDNSKNTLYLQMNSLRAEDTAVYYCETLLRFLESLGNDGFKIWGQGTMVTVSS
notes: as for B1
Consider B2, for which the concentration giving a half-maximal response (EC50) in [1] came to 0.16 µg/mL; in assay [2] it was 0.463 µg/mL; in assay [3], 0.002 µg/mL. Moreover, the figures for the “MAX(MFI)” value in assay [1] and in assay [2] were 668000 MFI and 883000 MFI, respectively. Further, the “EC50 (read off the curve)” value in [9] is ~0.2 µg/mL. Moreover, the dissociation constant (Kd) in assay [4] was < 0.001 nM. For the same molecule, the koff in [4] is < 1e-07 s⁻¹. The molecule also registered a kon in [4] of 165000 M⁻¹ s⁻¹. In addition, the binding result in [5] is listed as “no binding (tested: about 15 µg/ml)”. In addition, the “Inhibition (%)” value in assay [6] was -41%; in assay [7], -62%; in assay [8] it was 86%.

B3: PR000374 (antibody, human IgG1, kappa, V domains shown)
VH: EVQLVESGGGLVQPGRSLRLSCTASGSDINDYPITWVRQAPGQGLEWIGFINSGGSTWYASWVKGRFTISRDDSKSIAYLQMNSLKTEDTAVYYCARGYSTYYRDFNIWGQGTLVTVSS
VL: DIQMTQSPSSLSASVGDRVTINCQASQSIDSNLAWFQQKPGQPPKLLIYRASNLASGVPDRFSGSGSGTDFTLTISSLEAEDVATYYCLGGVGAVSYRTSFGGGTKVEIKR
notes: positive control; also called Bench marker 1
As to B3, the concentration for a half-maximal effect (EC50) in [1] was 0.61 µg/mL; in assay [2], 0.905 µg/mL; in [3] it was 0.001 µg/mL. In addition, the “MAX(MFI)” value in [1] amounted to 695000 MFI; in assay [2], 442000 MFI. For the same molecule, in assay [9], the half-maximal effective concentration (EC50 (read off the curve)) is ~0.6 µg/mL. The binding result in [5] is “no binding (tested: about 15 µg/ml)”. The “Inhibition (%)” value was -61% in [6], -67% in assay [7] and -63% in assay [8].
